From patent publication US20260167699A1 (Chugai, published 2026)
Positions count from the first letter of the chain named.

T1: FcγRIIa(R) extracellular domain, C-terminal His tag (human, UniProt P12318 34-217)
T1 construct: extracellular domain; also called 2aR
T1 sequence: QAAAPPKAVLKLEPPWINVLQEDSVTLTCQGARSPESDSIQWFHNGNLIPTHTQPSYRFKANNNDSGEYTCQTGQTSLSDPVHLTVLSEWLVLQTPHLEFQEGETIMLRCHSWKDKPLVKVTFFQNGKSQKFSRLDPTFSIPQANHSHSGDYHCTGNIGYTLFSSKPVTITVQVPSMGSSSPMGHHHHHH

T2: FcγRIIb extracellular domain, C-terminal His tag (human, UniProt P31994 43-217)
T2 construct: extracellular domain; also called 2b
T2 sequence: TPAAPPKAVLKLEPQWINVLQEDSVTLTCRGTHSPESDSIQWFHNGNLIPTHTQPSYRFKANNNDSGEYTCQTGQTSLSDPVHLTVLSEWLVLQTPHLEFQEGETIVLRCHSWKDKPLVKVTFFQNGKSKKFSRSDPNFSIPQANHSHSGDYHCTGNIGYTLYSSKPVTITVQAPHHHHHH

T3: FcγRIIa(H) extracellular domain, C-terminal His tag (human, UniProt P12318 34-217)
T3 construct: extracellular domain; also called 2aH
T3 sequence: T1 sequence with R134H

T4: FcγRIIa(H) extracellular domain, C-terminal His tag (human, UniProt P12318 34-217)
T4 construct: extracellular domain; Allotype H131; also called 2aH
T4 sequence: T1 sequence with R134H

T5: FcγRIIa(R) extracellular domain, C-terminal His tag (human, UniProt P12318 34-217)
T5 construct: extracellular domain; Allotype R131; also called 2aR
T5 sequence: T1 sequence

T6: FcγRIIb extracellular domain, C-terminal His tag (human, UniProt P31994 43-217)
T6 construct: extracellular domain; also called 2b
T6 sequence: T2 sequence

B1: GpH7-A5/GpH7-B3 variant Y300_19Q/GpL16-k0 (antibody, human IgG1, kappa)
heavy 1: not shown
heavy 2: not shown
light: DIVMTQSPLSLPVTPGEPASISCQASESLVHSNRNTYLHWYLQKPGQSPQLLIYKVSNRFSGVPDRFSGSGSGTDFTLKISRVEAEDVGVYYCSQNTHVPPTFGQGTKVEIERTVAAPSVFIFPPSDEQLKSGTASVVCLLNNFYPREAKVQWKVDNALQSGNSQESVTEQDSKDSTYSLSSTLTLSKADYEKHKVYACEVTHQGLSSPVTKSFNRGEC
notes: heterodimerized IgG1, one H chain mutated; also called He Ab; copies: 1 + 1 + 2
B2: GpH7-A5/GpH7-B3 variant K326_20W/GpL16-k0 (antibody, human IgG1, kappa)
heavy 1: not shown
heavy 2: not shown
light: B1 light
notes: He Ab: anti-glypican 3 IgG1 heterodimer, only the GpH7-B3 chain mutated; position in EU numbering; also called He Ab
B3: GpH7-A5/GpH7-B3 variant A327_19Q/GpL16-k0 (antibody, human IgG1, kappa)
heavy 1: not shown
heavy 2: not shown
light: B1 light
notes: as for B2
B4: GpH7-A5/GpH7-B3 variant Y300_20W/GpL16-k0 (antibody, human IgG1, kappa)
heavy 1: not shown
heavy 2: not shown
light: B1 light
notes: as for B1
B5: GpH7-A5/GpH7-B3 variant A327_13S/GpL16-k0 (antibody, human IgG1, kappa)
heavy 1: not shown
heavy 2: not shown
light: B1 light
notes: as for B2
B6: GpH7-A5/GpH7-B3 variant A327_10E/GpL16-k0 (antibody, human IgG1, kappa)
heavy 1: not shown
heavy 2: not shown
light: B1 light
notes: as for B2
B7: GpH7-A5/GpH7-B3 variant A330_01G/GpL16-k0 (antibody, human IgG1, kappa)
heavy 1: not shown
heavy 2: not shown
light: B1 light
notes: as for B2
B8: GpH7-A5/GpH7-B3 variant A327_20W/GpL16-k0 (antibody, human IgG1, kappa)
heavy 1: not shown
heavy 2: not shown
light: B1 light
notes: as for B2
B9: GpH7-A5/GpH7-B3 variant A330_12R/GpL16-k0 (antibody, human IgG1, kappa)
heavy 1: not shown
heavy 2: not shown
light: B1 light
notes: as for B2
B10: GpH7-A5/GpH7-B3 variant A327_18N/GpL16-k0 (antibody, human IgG1, kappa)
heavy 1: not shown
heavy 2: not shown
light: B1 light
notes: as for B2
B11: GpH7-A5/GpH7-B3 variant A327_09D/GpL16-k0 (antibody, human IgG1, kappa)
heavy 1: not shown
heavy 2: not shown
light: B1 light
notes: as for B2
B12: GpH7-A5/GpH7-B3 variant A330_08L/GpL16-k0 (antibody, human IgG1, kappa)
heavy 1: not shown
heavy 2: not shown
light: B1 light
notes: as for B2
B13: GpH7-A5/GpH7-B3 variant A330_09D/GpL16-k0 (antibody, human IgG1, kappa)
heavy 1: not shown
heavy 2: not shown
light: B1 light
notes: as for B2
B14: GpH7-A5/GpH7-B3 variant A330_06M/GpL16-k0 (antibody, human IgG1, kappa)
heavy 1: not shown
heavy 2: not shown
light: B1 light
notes: as for B2
B15: GpH7-A5/GpH7-B3 variant A330_11K/GpL16-k0 (antibody, human IgG1, kappa)
heavy 1: not shown
heavy 2: not shown
light: B1 light
notes: as for B2
B16: GpH7-A5/GpH7-B3 variant A330_04F/GpL16-k0 (antibody, human IgG1, kappa)
heavy 1: not shown
heavy 2: not shown
light: B1 light
notes: as for B2
B17: GpH7-A5/GpH7-B3 variant A330_03V/GpL16-k0 (antibody, human IgG1, kappa)
heavy 1: not shown
heavy 2: not shown
light: B1 light
notes: as for B2
B18: GpH7-A5/GpH7-B3 variant A330_10E/GpL16-k0 (antibody, human IgG1, kappa)
heavy 1: not shown
heavy 2: not shown
light: B1 light
notes: as for B2
B19: GpH7-A5/GpH7-B3 variant A327_05P/GpL16-k0 (antibody, human IgG1, kappa)
heavy 1: not shown
heavy 2: not shown
light: B1 light
notes: as for B2
B20: GpH7-A5/GpH7-B3 variant A330_07I/GpL16-k0 (antibody, human IgG1, kappa)
heavy 1: not shown
heavy 2: not shown
light: B1 light
notes: as for B2
B21: GpH7-A5/GpH7-B3 variant A327_06M/GpL16-k0 (antibody, human IgG1, kappa)
heavy 1: not shown
heavy 2: not shown
light: B1 light
notes: as for B2

What was measured:
[1] = target: T1, FcγRIIa(R) extracellular domain, …; assay: SPR; He Ab vs HeCon Ab (GpH7-A5/GpH7-B3/GpL16-k0)=100;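 note: surface plasmon resonance at 25 °C with the test antibody captured on a sensor chip via antigenic peptide, protein L or protein A/G and FcγR flowed over as analyte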
[2] = target: T7, FcγRIa extracellular domain, C-terminal His tag (human, UniProt P12314 16-292); assay: as above
T7 construct: extracellular domain; also called 1a
T7 sequence (P12314 other isoform, or with tags, fused parts or gaps): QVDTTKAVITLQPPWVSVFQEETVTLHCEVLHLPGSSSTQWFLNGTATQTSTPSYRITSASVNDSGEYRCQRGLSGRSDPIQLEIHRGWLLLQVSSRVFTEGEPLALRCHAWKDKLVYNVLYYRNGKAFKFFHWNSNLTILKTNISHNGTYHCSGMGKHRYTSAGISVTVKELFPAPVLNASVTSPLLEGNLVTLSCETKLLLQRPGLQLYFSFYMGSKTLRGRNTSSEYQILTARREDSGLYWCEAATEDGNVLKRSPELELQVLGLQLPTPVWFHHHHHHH

[3] = target: T2, FcγRIIb extracellular domain, …; assay: as above
[4] = target: T3, FcγRIIa(H) extracellular domain, …; assay: as above
[5] = target: T8, FcγRIIIa extracellular domain, C-terminal His tag (human, UniProt P08637 17-208); assay: as above
T8 construct: extracellular domain; also called 3a
T8 sequence (P08637 other isoform, or with tags, fused parts or gaps): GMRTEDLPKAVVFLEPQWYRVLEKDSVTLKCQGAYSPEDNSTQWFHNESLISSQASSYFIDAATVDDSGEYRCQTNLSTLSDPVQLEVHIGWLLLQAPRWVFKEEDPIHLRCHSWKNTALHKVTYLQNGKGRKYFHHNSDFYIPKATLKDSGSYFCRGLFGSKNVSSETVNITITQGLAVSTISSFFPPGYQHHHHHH

[6] = target: T9, FcγRIa extracellular domain, C-terminal His tag (human, UniProt P12314 16-292); assay: SPR (Biacore); binding relative to GpH7-A5/GpH7-B3/GpL16-k0 x100;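 note: antibodies captured on a chip surface, soluble FcγR flowed over in HBS-EP+ running buffer at 25 °C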
T9 construct: extracellular domain; also called 1a
T9 sequence (P12314 other isoform, or with tags, fused parts or gaps): as the sequence (P12314 other isoform, or with tags, fused parts or gaps) above

[7] = target: T4, FcγRIIa(H) extracellular domain, …; assay: as above
[8] = target: T5, FcγRIIa(R) extracellular domain, …; assay: as above
[9] = target: T10, FcγRIIIa extracellular domain, C-terminal His tag (human, UniProt P08637 17-208); assay: as above
T10 construct: extracellular domain; also called 3a
T10 sequence (P08637 other isoform, or with tags, fused parts or gaps): as the sequence (P08637 other isoform, or with tags, fused parts or gaps) above

[10] = target: T6, FcγRIIb extracellular domain, …; assay: as above

Binder | He/Con 2aR [1] | He/Con 1a [2] | He/Con 2b [3] | He/Con 2aH [4] | He/Con 3a [5] | He/Con 1a [6] | He/Con 2aH [7] | He/Con 2aR [8] | He/Con 3a [9] | He/Con 2b [10]
B1 | 119% | 106% | 142% | 107% | 105% |  |  |  |  | 
B2 |  |  |  |  |  | 108% | 86.7% | 125% | 93.7% | 166%
B3 |  |  |  |  |  | 98.5% | 79.6% | 77.7% | 54% | 67.5%
B4 | 104% | 106% | 110% | 103% | 101% |  |  |  |  | 
B5 |  |  |  |  |  | 105% | 84.4% | 98.6% | 66.7% | 99%
B6 |  |  |  |  |  | 106% | 108% | 142% | 70.5% | 175%
B7 |  |  |  |  |  | 109% | 107% | 122% | 87.3% | 117%
B8 |  |  |  |  |  | 100% | 76.6% | 95.9% | 52.6% | 98.2%
B9 |  |  |  |  |  | 103% | 116% | 116% | 77.3% | 95.8%
B10 |  |  |  |  |  | 100% | 79% | 114% | 62.8% | 141%
B11 |  |  |  |  |  | 105% | 124% | 159% | 86% | 214%
B12 |  |  |  |  |  | 110% | 94.7% | 99.7% | 122% | 79.6%
B13 |  |  |  |  |  | 112% | 67.8% | 79.5% | 56.4% | 62.8%
B14 |  |  |  |  |  | 108% | 101% | 107% | 139% | 90.9%
B15 |  |  |  |  |  | 107% | 118% | 124% | 91.8% | 107%
B16 |  |  |  |  |  | 110% | 104% | 112% | 144% | 105%
B17 |  |  |  |  |  | 109% | 86.1% | 84% | 98.8% | 59.2%
B18 |  |  |  |  |  | 111% | 87.7% | 97.2% | 82.8% | 79.2%
B19 |  |  |  |  |  | 102% | 67.9% | 80.6% | 61.9% | 86.3%
B20 |  |  |  |  |  | 109% | 94.4% | 96% | 101% | 75.8%
B21 |  |  |  |  |  | 106% | 89.3% | 80% | 54% | 74.1%
